These results are taken from patent US12134634B2.

Test [1] concerns the target NIR JNK biosensor (… SEQUENCE).
The target of test [2] is NIR PKA biosensor (… SEQUENCE).
Test [3] deals with miRFP670nano-DEVD-miRFP720 FRET-based reporter for caspase-3 activity (… SEQUENCE).

For the substance c-Jun N-terminal kinase (JNK) (enzyme), the FRET/miRFP670nano fluorescence ratio in test [1] was found to be 35%.

For the substance Protein Kinase A (PKA) (enzyme), the FRET/miRFP670nano fluorescence ratio in test [2] stood at 33%.

Take “caspase-3 (from UniProt P42574) (enzyme)”: the FRET/miRFP670nano fluorescence ratio detected at 725 nm/667 nm in test [3] is 1.65 fold.
